For the experiment, the target named is Ancylostoma ceylanicum phytochelatin synthase (Ancylostoma ceylanicum). Briefly: SEC.

By stoichiometry N is commonly meant a count of units in the complex or per binding partner. For “Ancylostoma ceylanicum phytochelatin synthase (enzyme)”, the stoichiometry N worked out at 2.

The record behind these values is publication PMC3823645.
